Laboratory results reported in patent US20220220216A1 (Kyowa Kirin, published 2022).
Changes are numbered by the printed parent chain. Names may count otherwise. Like-named read-outs stand apart in the source and are kept apart here.

Experiments:
[1] = biological target: T1, Human GPC3-His (manufactured by ACROBiosystems, Inc.) (human, UniProt P51654 25-559); experiment: SPR (Biacore T100), antibody captured on anti-human IgG, antigen as analyte, single cycle kinetics; first run (Table 8)
T1 construct: Bought protein; also called hGPC3-His; not shown: His tag
Method: (§1) An anti-human IgG antibody was immobilized on a CMS sensor chip (manufactured by GE Healthcare, Inc.) using Human Antibody Capture Kit (manufactured by GE Healthcare, Inc.) according to the package insert. A test antibody prepared at 2 μg/mL was added to a flow cell for 10 seconds at a flow rate of 10 μL/min.
(§2) The measurement was performed by a single cycle kinetics method.
(§3) The obtained sensorgram was analyzed using Bia Evaluation Software (manufactured by GE Healthcare, Inc.), and the kinetic constant of each antibody was calculated.

[2] = biological target: T1, Human GPC3-His (manufactured by …); experiment: SPR (Biacore T100), antibody captured on anti-human IgG, antigen as analyte, single cycle kinetics
Method: as §1, §2

human CD40 on cells [3] = biological target: T2, human CD40 on cells (human, UniProt P25942 21-277); experiment: FCM on Ramos cells (CD40-positive), MFI [B]
T2 construct: Endogenous CD40 of Ramos cells (and of monocyte-derived dendritic cells); also called CD40 on Ramos cells; CD40 on human induced dendritic cells
Method: The reactivity of each of various bispecific antibodies produced in Example 16 with HepG2 cells and Ramos cells was evaluated by FCM in the same manner as in Example 7.

[4] = biological target: T1, Human GPC3-His (manufactured by …); experiment: SPR (Biacore T100), antibody captured on anti-human IgG, antigen as analyte, single cycle kinetics; second run (Table 9)
Method: as §1, §2

[5] = biological target: T1, Human GPC3-His (manufactured by …); experiment: SPR (Biacore T100), antibody captured on anti-human IgG, antigen as analyte, single cycle kinetics; remark: listed apart in the source
Method: as §1, §2, §3

human CD40 on cells [6] = biological target: T2, human CD40 on cells; experiment: FCM on Ramos cells (CD40-positive, GPC3-negative)
Method: (§4) Ramos cells were suspended in SB at a cell density of 1×10⁶ cells/mL, and the suspension was dispensed in a 96-well round bottom plate (manufactured by Falcon, Inc.) at 100 μL/well.
(§5) After further centrifugation (2000 rpm, 4° C., 2 minutes), the supernatant was removed, and the pellet was washed 3 times with 200 μL/well of SB, and then, APC-conjugated AffiniPure F(ab′)₂ Goat Anti-Human IgG, Fcγ (manufactured by Jackson ImmunoResearch Laboratories, Inc.) diluted 100 times was added thereto at 100 μL/well, and the plate was incubated at ice temperature for 30 minutes. After washing twice with SB, the cells were suspended in 100 μL/well of SB, and the fluorescence intensity of each cell was measured using a flow cytometer FACSCANTO II (manufactured by Becton, Dickinson and Company).

human CD40 on cells [7] = biological target: T2, human CD40 on cells; experiment: FCM on Ramos cells (CD40-positive, GPC3-negative), APC anti-human IgG Fc, MFI [A]
Method: as §4, §5

[8] = biological target: T3, human GPC3 on a cell membrane (human, UniProt P51654 25-554); experiment: FCM on HepG2 cells (GPC3-positive), APC anti-human IgG Fc, MFI [B]
T3 construct: HepG2 and HuH-7 carry the endogenous protein; also called hGPC3; GPC3 on HepG2 cells, HuH-7 cells, MC-38/hGPC3 cells and Expi293F cells transiently expressing human GPC3

human CD40 on cells [9] = biological target: T2, human CD40 on cells; experiment: FCM on Ramos cells (CD40-positive, GPC3-negative), antibody at 0.01-10 µg/mL, APC anti-human IgG Fc, MFI [A]
Method: as §4, §5

human CD40-GST protein = biological target: T4, human CD40-GST protein (human, UniProt P25942 21-193); experiment: phage ELISA, CD40-GST immobilised on the plate
T4 construct: not shown: GST region of the N5 vector
Method: (§6) In the ELISA, MAXISORP (manufactured by NUNC, Inc.) in which the human or monkey CD40-GST in Example 1 was immobilized on each well and a portion to which the human or monkey CD40-GST is not bound was blocked using SuperBlock Blockig Buffer (manufactured by Thermo Fisher, Inc.) was used. To each well, each phage clone was added and reacted at room temperature for 30 minutes, and thereafter, each well was washed 3 times with PBS-T.
(§7) Subsequently, an anti-M13 antibody (manufactured by GE Healthcare, Inc.) labeled with horseradish peroxidase was diluted 5000 times with PBS-T containing 10% Block Ace (manufactured by Dainippon Pharmaceutical Co., Ltd.), and the resultant was added in an amount of 50 μL to each well, and incubated at room temperature for 30 minutes. After the microplate was washed four times with PBS-T, a TMB chromogenic substrate solution (manufactured by DAKO, Inc.) was added in an amount of 50 μL to each well and incubated at room temperature for 10 minutes.

monkey CD40-GST protein = biological target: T5, monkey CD40-GST protein (monkey, UniProt P25942 21-193 (human entry)); experiment: phage ELISA, CD40-GST immobilised on the plate
T5 construct: it may begin with a signal peptide; not shown: GST region of the N5 vector
T5 chain: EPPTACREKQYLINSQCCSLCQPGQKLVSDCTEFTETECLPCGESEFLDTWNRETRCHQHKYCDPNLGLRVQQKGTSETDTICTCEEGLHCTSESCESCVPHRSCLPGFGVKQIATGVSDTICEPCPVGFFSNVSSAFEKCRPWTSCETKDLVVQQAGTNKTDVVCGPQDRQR
Method: as §6, §7

T1 sequence (P51654 25-559 limits assumed): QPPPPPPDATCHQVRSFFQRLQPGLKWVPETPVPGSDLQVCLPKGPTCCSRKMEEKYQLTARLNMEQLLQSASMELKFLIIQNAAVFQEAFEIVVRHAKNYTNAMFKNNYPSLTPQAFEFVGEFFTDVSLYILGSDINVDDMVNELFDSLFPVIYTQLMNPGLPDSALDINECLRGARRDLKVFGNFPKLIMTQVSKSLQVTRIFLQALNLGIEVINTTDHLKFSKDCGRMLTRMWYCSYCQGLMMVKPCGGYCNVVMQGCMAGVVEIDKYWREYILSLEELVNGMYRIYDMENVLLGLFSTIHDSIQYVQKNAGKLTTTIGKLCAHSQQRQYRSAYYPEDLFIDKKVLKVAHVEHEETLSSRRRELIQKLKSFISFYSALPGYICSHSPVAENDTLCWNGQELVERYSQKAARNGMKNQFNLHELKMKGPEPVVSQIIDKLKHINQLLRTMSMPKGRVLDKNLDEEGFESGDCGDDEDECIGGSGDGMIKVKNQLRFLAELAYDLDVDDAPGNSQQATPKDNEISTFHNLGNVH
T3 sequence (P51654 25-554 limits assumed): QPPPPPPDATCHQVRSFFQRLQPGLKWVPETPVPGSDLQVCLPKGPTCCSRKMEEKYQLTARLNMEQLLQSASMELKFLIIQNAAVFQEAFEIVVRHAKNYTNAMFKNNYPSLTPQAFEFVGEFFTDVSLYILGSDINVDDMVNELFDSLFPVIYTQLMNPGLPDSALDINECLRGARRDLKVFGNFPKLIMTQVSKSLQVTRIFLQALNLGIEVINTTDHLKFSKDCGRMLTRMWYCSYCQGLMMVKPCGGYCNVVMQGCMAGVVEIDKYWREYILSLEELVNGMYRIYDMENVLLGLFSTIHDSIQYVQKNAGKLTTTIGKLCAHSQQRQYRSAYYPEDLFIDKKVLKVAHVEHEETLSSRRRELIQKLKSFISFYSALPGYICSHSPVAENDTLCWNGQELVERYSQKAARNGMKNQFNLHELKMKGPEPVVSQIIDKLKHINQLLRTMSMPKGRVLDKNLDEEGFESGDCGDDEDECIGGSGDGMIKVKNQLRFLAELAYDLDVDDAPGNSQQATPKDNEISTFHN

B1: conventional anti-GPC3 antibody HN3 (IgG4PE R409K) (antibody, V domains shown)
VH: QVQLVQSGGGLVQPGGSLRLSCAASYFDFDSYEMSWVRQAPGKGLEWIGSIYHSGSTYYNPSLKSRVTISRDNSKNTLYLQMNTLRAEDTATYYCARVNMDRFDYWGQGTLVTVSS
notes: Variable region from WO 2012/145469
kon [1]: > 1e+07 M⁻¹ s⁻¹
Kd [2]: 24.4 nM
binding result (human CD40 on cells [3]): no binding (tested: 10 µg/mL)
kon [4]: > 1e+07 M⁻¹ s⁻¹
Kd [5]: 13.2 nM

B2: anti-GPC3 antibody GPngs18 (antibody, human IgG4 S228P, kappa, V domains shown)
VH: EVQLVESGGGLVQPGGSLRLSCAASGFTFSSYSMNWVRQAPGKGLEWVSYIRSDSRTIKYADSVKGRFTISRDNAKNSLFLQMNSLRDEDTAVYYCARWEWELDAFDIWGQGTMVTVSS
VL: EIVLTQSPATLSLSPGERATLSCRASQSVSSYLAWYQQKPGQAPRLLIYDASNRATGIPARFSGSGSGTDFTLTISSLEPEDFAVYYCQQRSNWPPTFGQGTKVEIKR
notes: IgG4PE R409K; light chain with L6 as VL
binding result (human CD40 on cells [6]): no binding (tested: 10 µg/mL)
Kd [2]: 0.39 nM
koff [2]: 0.000764 s⁻¹
kon [2]: 1.96e+06 M⁻¹ s⁻¹

B3: anti-GPC3 antibody GpA6062 (antibody, human IgG4 S228P, kappa, V domains shown)
VH: EVQLVETGGGLVQPGGSLRLSCAASGFSFSSYAMNWVRQAPGKGLEWVSYITSGGSSRYYADSVKGRFTISRDNAKNSLYLQMNSLRDEDTAVYYCARGTYYYGSGNYFLFDYWGQGTTVTVSS
VL: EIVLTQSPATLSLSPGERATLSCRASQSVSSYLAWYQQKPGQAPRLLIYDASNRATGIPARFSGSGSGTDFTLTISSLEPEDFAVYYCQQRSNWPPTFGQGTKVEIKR
notes: as for B2
binding result (human CD40 on cells [7]): no binding (tested: 10 µg/mL)
Kd [2]: 6.33 nM
koff [2]: 0.00175 s⁻¹
kon [2]: 276000 M⁻¹ s⁻¹

B4: anti-GPC3 antibody GpA6005 (antibody, human IgG4 S228P, kappa, V domains shown)
VH: B3 VH with E1Q, T7S, S28T, A33S, T52K, G54S, R58T, Y80N, Y108F, T119L
VL: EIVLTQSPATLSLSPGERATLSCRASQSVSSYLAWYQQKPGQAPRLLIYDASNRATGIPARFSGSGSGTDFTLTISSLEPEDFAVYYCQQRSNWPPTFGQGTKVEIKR
notes: as for B2
binding result (human CD40 on cells [7]): no binding (tested: 10 µg/mL)
Kd [2]: 0.762 nM
koff [2]: 0.000347 s⁻¹
kon [2]: 456000 M⁻¹ s⁻¹

B5: anti-GPC3 antibody GpA6014 (antibody, human IgG4 S228P, kappa, V domains shown)
VH: B3 VH with E1Q, V2M, E6Q, T7S, Y113H, T119M
VL: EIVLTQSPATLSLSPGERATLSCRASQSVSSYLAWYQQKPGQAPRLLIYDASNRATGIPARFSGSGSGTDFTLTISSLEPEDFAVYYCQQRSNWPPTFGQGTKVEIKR
notes: as for B2
binding result (human CD40 on cells [7]): no binding (tested: 10 µg/mL)
Kd [2]: 6.35 nM
koff [2]: 0.00189 s⁻¹
kon [2]: 297000 M⁻¹ s⁻¹

B6: conventional anti-GPC3 antibody YP7 (IgG4PE R409K) (antibody, V domains shown)
VH: EVQLVETGGGMVQPEGSLKLSCAASGFTFNKNAMNWVRQAPGKGLEWVARIRNKTNNYATYYADSVKARFTISRDDSQSMLYLQMNNLKIEDTAMYYCVAGNSFAYWGQGTLVTVSA
VL: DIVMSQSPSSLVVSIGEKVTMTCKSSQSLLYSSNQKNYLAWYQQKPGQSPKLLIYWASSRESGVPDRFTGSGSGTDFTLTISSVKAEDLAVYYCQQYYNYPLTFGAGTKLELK
notes: Variable regions from WO 2013/181543; not shown: constant region of 'a κ chain'
binding result (human CD40 on cells [3]): no binding (tested: 10 µg/mL)
Kd [5]: 0.861 nM
koff [5]: 0.000186 s⁻¹
kon [5]: 217000 M⁻¹ s⁻¹

B7: anti-CD40 monoclonal antibody R1090S55A (antibody, V domains shown)
VH: EVQLVQSGAEVKKPGESLKISCKGSGYSFIIYWIGWVRQMPGKGLEWMGIIYPNDADTRYSPSFQGQVTISADKSISTAYLQWSSLKASDTAMYYCVRLGTRDWFDPWGQGTLVTVSS
VL: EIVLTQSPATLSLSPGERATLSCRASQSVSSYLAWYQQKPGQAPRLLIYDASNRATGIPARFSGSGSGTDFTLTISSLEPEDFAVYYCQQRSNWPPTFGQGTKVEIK
binding result [8]: no binding (tested: 10 µg/mL)
binding result (human CD40 on cells [9]): binds

B8: R1090S55A monoclonal phage clone (scFv displayed on M13 phage) (scFv, V domains shown)
VH: B7 VH
VL: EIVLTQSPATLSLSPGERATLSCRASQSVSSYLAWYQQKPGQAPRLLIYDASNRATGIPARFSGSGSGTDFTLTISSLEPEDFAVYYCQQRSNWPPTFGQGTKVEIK
notes: Form in the screening ELISA: scFv on phage (phagemid pCANTAB 5E); also called R1090S55A phage clone
binding result (human CD40-GST protein): binds
binding result (monkey CD40-GST protein): binds

B9: anti-GPC3 antibody GPngs62 (antibody, human IgG4 S228P, kappa, V domains shown)
VH: EVQLVESGGGLVQPGGSLRLSCAASGFTFSSYARSWVRQAPGKGLEWVSAISGGGGRTYYADSVKGRFTISRDNSQNTLYLQMNSLRAEDTAVYYCAKNYYGSGSASYWYFDLWGRGTLVTVSS
VL: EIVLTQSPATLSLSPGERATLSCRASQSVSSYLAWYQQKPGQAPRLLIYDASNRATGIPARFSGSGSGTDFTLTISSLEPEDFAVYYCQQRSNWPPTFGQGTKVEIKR
notes: as for B2
binding result (human CD40 on cells [6]): no binding (tested: 10 µg/mL)
Kd [2]: 5.36 nM
koff [2]: 0.031 s⁻¹
kon [2]: 5.74e+06 M⁻¹ s⁻¹

B10: conventional anti-GPC3 antibody GC33 (IgG4PE R409K) (antibody, V domains shown)
VH: QVQLQQSGAELVRPGASVKLSCKASGYTFTDYEMHWVKQTPVHGLKWIGALDPKTGDTAYSQKFKGKATLTADKSSSTAYMELRSLTSEDSAVYYCTRFYSYTYWGQGTLVTVSA
VL: DVVMTQTPLSLPVSLGDQASISCRSSQSLVHSNGNTYLHWYLQKPGQSPKLLIYKVSNRFSGVPDRFSGSGSGTDFTLKISRVEAEDLGVYFCSQNTHVPPTFGSGTKLEIK
notes: Variable regions from WO 2006/006693; not shown: constant region of 'a κ chain'
Kd [2]: 1.46 nM
koff [2]: 0.000299 s⁻¹
kon [2]: 205000 M⁻¹ s⁻¹
binding result (human CD40 on cells [3]): no binding (tested: 10 µg/mL)
Kd [5]: 2.6 nM
koff [5]: 0.000378 s⁻¹
kon [5]: 145000 M⁻¹ s⁻¹

B11: anti-CD40 monoclonal antibody 21.4.1 (CP-870,893) (antibody, V domains shown)
VH: not shown
VL: DIQMTQSPSSVSASVGDRVTITCRASQGIYSWLAWYQQKPGKAPNLLIYTASTLQSGVPSRFSGSGSGTDFTLTISSLQPEDFATYYCQQANIFPLTFGGGTKVEIK
notes: Constant region of human IgG2 (N5KG2 vector); positive control agonistic anti-CD40 antibody
binding result [8]: no binding (tested: 10 µg/mL)
